In patent US20240117018A1:

Key:
Assay in all cases: cell-based or functional assay
[1] = molecular target: HIV-1 Env pseudovirus 1012_11_TC21_3257 (HIV-1)
[2] = molecular target: HIV-1 Env pseudovirus 62357_14_D3_4589 (HIV-1)
[3] = molecular target: HIV-1 Env pseudovirus AC10.0.29 (HIV-1)
[4] = molecular target: HIV-1 Env pseudovirus BF1266.431a (HIV-1)
[5] = molecular target: HIV-1 Env pseudovirus CAP210.2.00.E8 (HIV-1)
[6] = molecular target: HIV-1 Env pseudovirus CNE52 (HIV-1)
[7] = molecular target: HIV-1 Env pseudovirus CNE53 (HIV-1)
[8] = molecular target: HIV-1 Env pseudovirus CNE58 (HIV-1)
[9] = molecular target: HIV-1 Env pseudovirus Ce0393_C3 (HIV-1)
[10] = molecular target: HIV-1 Env pseudovirus Ce0682_E4 (HIV-1)
[11] = molecular target: HIV-1 Env pseudovirus HIV-16845-2.22 (HIV-1)
[12] = molecular target: HIV-1 Env pseudovirus MS208.A1 (HIV-1)
[13] = molecular target: HIV-1 Env pseudovirus SC05_8C11_2344 (HIV-1)
[14] = molecular target: HIV-1 Env pseudovirus TRJO4551.58 (HIV-1)
[15] = molecular target: HIV-1 Env pseudovirus TRO.11 (HIV-1)
[16] = molecular target: HIV-1 Env pseudovirus ZM109F.PB4 (HIV-1)
[17] = molecular target: HIV-1 Env pseudovirus ZM53M.PB12 (HIV-1)
[18] = molecular target: HIV-1 Env pseudovirus 0815.v3.c3 (HIV-1)
[19] = molecular target: HIV-1 Env pseudovirus 211-9 (HIV-1)
[20] = molecular target: HIV-1 Env pseudovirus 235-47 (HIV-1)
[21] = molecular target: HIV-1 Env pseudovirus 3103.v3.c10 (HIV-1)
[22] = molecular target: HIV-1 Env pseudovirus 3301.v1.c24 (HIV-1)
[23] = molecular target: HIV-1 Env pseudovirus 6952.v1.c20 (HIV-1)
[24] = molecular target: HIV-1 Env pseudovirus R1166.c01 (HIV-1)

## N49P11 (antibody)
[1]
  IC50: 10.6 µg/mL
  IC80: 29.3 µg/mL
  MPI: 100
[2]
  IC50: 0.599 µg/mL
  IC80: 3.56 µg/mL
  MPI: 100
[3]
  IC50: 5.52 µg/mL
  IC80: 20 µg/mL
  MPI: 100
[4]
  IC50: 0.998 µg/mL
  IC80: 7.13 µg/mL
  MPI: 100
[5]
  IC50: 5.12 µg/mL
  IC80: 19.4 µg/mL
  MPI: 100
[6]
  IC50: 0.06 µg/mL
  IC80: 0.307 µg/mL
  MPI: 100
[7]
  IC50: 0.43 µg/mL
  IC80: 2.88 µg/mL
  MPI: 100
[8]
  IC50: 0.038 µg/mL
  IC80: 0.135 µg/mL
  MPI: 100
[9]
  IC50: 1.51 µg/mL
  IC80: 9.71 µg/mL
  MPI: 100
[10]
  IC50: 0.091 µg/mL
  IC80: 0.387 µg/mL
  MPI: 100
[11]
  IC50: 1.72 µg/mL
  IC80: 8.15 µg/mL
  MPI: 100
[12]
  IC50: 0.259 µg/mL
  IC80: 1.94 µg/mL
  MPI: 100
[13]
  IC50: 5.42 µg/mL
  IC80: 20.5 µg/mL
  MPI: 100
[14]
  IC50: 0.183 µg/mL
  IC80: 0.656 µg/mL
  MPI: 100
[15]
  IC50: 0.179 µg/mL
  IC80: 0.937 µg/mL
  MPI: 100
[16]
  IC50: 5.2 µg/mL
  IC80: 19.4 µg/mL
  MPI: 100
[17]
  IC50: 1.05 µg/mL
  IC80: 6.53 µg/mL
  MPI: 100

## N49P18.1 (antibody)
[1]
  IC50: 16.1 µg/mL
  IC80: > 50 µg/mL
  MPI: 79
[2]
  IC50: 10.4 µg/mL
  IC80: 48 µg/mL
  MPI: 82
[3]
  IC50: 20 µg/mL
  IC80: > 50 µg/mL
  MPI: 71
[4]
  IC50: 3.48 µg/mL
  IC80: 20.8 µg/mL
  MPI: 93
[5]
  IC50: > 50 µg/mL
  IC80: > 50 µg/mL
  MPI: 11
[6]
  IC50: 2.46 µg/mL
  IC80: 6.65 µg/mL
  MPI: 100
[7]
  IC50: 4.08 µg/mL
  IC80: 21.8 µg/mL
  MPI: 97
[8]
  IC50: 1.92 µg/mL
  IC80: 5.26 µg/mL
  MPI: 100
[9]
  IC50: 10.3 µg/mL
  IC80: 24.8 µg/mL
  MPI: 92
[10]
  IC50: 3.95 µg/mL
  IC80: 21.1 µg/mL
  MPI: 96
[11]
  IC50: > 50 µg/mL
  IC80: > 50 µg/mL
  MPI: 23
[12]
  IC50: 8.31 µg/mL
  IC80: 33.3 µg/mL
  MPI: 88
[13]
  IC50: 17.3 µg/mL
  IC80: > 50 µg/mL
  MPI: 79
[14]
  IC50: 4.44 µg/mL
  IC80: 14.7 µg/mL
  MPI: 99
[15]
  IC50: 4.25 µg/mL
  IC80: 11.7 µg/mL
  MPI: 99
[16]
  IC50: 26.6 µg/mL
  IC80: > 50 µg/mL
  MPI: 69
[17]
  IC50: 1.3 µg/mL
  IC80: 4.51 µg/mL
  MPI: 99

## VRC01 (antibody)
[18]
  IC50 (Titer in TZM.bl cells): 0.06 µg/mL
  IC80 (Titer in TZM.bl cells): 0.13 µg/mL
[1]
  IC50 (Titer in TZM.bl cells): 0.12 µg/mL
  IC80 (Titer in TZM.bl cells): 0.32 µg/mL
[19]
  IC50 (Titer in TZM.bl cells): 14.3 µg/mL
  IC80 (Titer in TZM.bl cells): > 50 µg/mL
[20]
  IC50 (Titer in TZM.bl cells): 0.04 µg/mL
  IC80 (Titer in TZM.bl cells): 0.17 µg/mL
[21]
  IC50 (Titer in TZM.bl cells): 0.93 µg/mL
  IC80 (Titer in TZM.bl cells): 2.49 µg/mL
[22]
  IC50 (Titer in TZM.bl cells): 0.14 µg/mL
  IC80 (Titer in TZM.bl cells): 0.32 µg/mL
[2]
  IC50 (Titer in TZM.bl cells): 0.96 µg/mL
  IC80 (Titer in TZM.bl cells): 4.68 µg/mL
[23]
  IC50 (Titer in TZM.bl cells): 0.04 µg/mL
  IC80 (Titer in TZM.bl cells): 0.12 µg/mL
[3]
  IC50 (Titer in TZM.bl cells): 2.2 µg/mL
  IC80 (Titer in TZM.bl cells): 6.5 µg/mL
[4]
  IC50 (Titer in TZM.bl cells): 0.07 µg/mL
  IC80 (Titer in TZM.bl cells): 0.23 µg/mL
[5]
  IC50 (Titer in TZM.bl cells): > 50 µg/mL
  IC80 (Titer in TZM.bl cells): > 50 µg/mL
[9]
  IC50 (Titer in TZM.bl cells): 0.62 µg/mL
  IC80 (Titer in TZM.bl cells): 2.37 µg/mL
[10]
  IC50 (Titer in TZM.bl cells): 0.08 µg/mL
  IC80 (Titer in TZM.bl cells): 0.48 µg/mL
[11]
  IC50 (Titer in TZM.bl cells): 2.8 µg/mL
  IC80 (Titer in TZM.bl cells): 12.7 µg/mL
[12]
  IC50 (Titer in TZM.bl cells): 0.1 µg/mL
  IC80 (Titer in TZM.bl cells): 0.46 µg/mL
[24]
  IC50 (Titer in TZM.bl cells): 1.7 µg/mL
  IC80 (Titer in TZM.bl cells): 4.58 µg/mL
[13]
  IC50 (Titer in TZM.bl cells): 0.64 µg/mL
  IC80 (Titer in TZM.bl cells): 1.91 µg/mL
[14]
  IC50 (Titer in TZM.bl cells): 0.08 µg/mL
  IC80 (Titer in TZM.bl cells): 0.21 µg/mL
[15]
  IC50 (Titer in TZM.bl cells): 0.21 µg/mL
  IC80 (Titer in TZM.bl cells): 0.83 µg/mL
[16]
  IC50 (Titer in TZM.bl cells): 0.13 µg/mL
  IC80 (Titer in TZM.bl cells): 0.75 µg/mL
[17]
  IC50 (Titer in TZM.bl cells): 1.3 µg/mL
  IC80 (Titer in TZM.bl cells): 4 µg/mL

## VRC07 (antibody)
[18]
  IC50 (Titer in TZM.bl cells): 0.015 µg/mL
  IC80 (Titer in TZM.bl cells): 0.051 µg/mL
[19]
  IC50 (Titer in TZM.bl cells): 5.92 µg/mL
  IC80 (Titer in TZM.bl cells): 38 µg/mL
[20]
  IC50 (Titer in TZM.bl cells): 0.024 µg/mL
  IC80 (Titer in TZM.bl cells): 0.075 µg/mL
[21]
  IC50 (Titer in TZM.bl cells): 0.675 µg/mL
  IC80 (Titer in TZM.bl cells): 1.95 µg/mL
[22]
  IC50 (Titer in TZM.bl cells): 0.027 µg/mL
  IC80 (Titer in TZM.bl cells): 0.073 µg/mL
[23]
  IC50 (Titer in TZM.bl cells): 0.064 µg/mL
  IC80 (Titer in TZM.bl cells): 0.181 µg/mL
[24]
  IC50 (Titer in TZM.bl cells): 0.81 µg/mL
  IC80 (Titer in TZM.bl cells): 3.17 µg/mL
